These results are taken from the RNAGym collection of RNA variant scans (doi:10.1093/nar/gkz1192).

To fix the notation:
B1: CPEB3 Ribozyme (parent)
chain: UAACAGGGGGCCACAGCAGAAGCGUUCACGUCGCAGCCCCUGUCAGAUUCUGGUGAAUCUGCGAAUUCUGCUGUAUAUCUC

This series covers variants of B1. Briefly: self-cleavage, relative activity (ratio to wild type); higher = more cleavage; in vitro, sequencing. The method, boiled down: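 Libraries of CPEB3 self-cleaving ribozyme mutants came from rounds of error-prone PCR and carried barcodes, which DNA sequencing matched to variants. In vitro transcription used T7 RNA polymerase at 37°C for 5 hours, with a further 15 min in DNase I before EDTA stopped the reaction; the ribozymes cleaved during both steps. The RNA was reverse transcribed with template switching and sequenced on Illumina. Relative activity is the cleaved/total read fraction of a variant divided by that of the unmutated ribozyme, averaged over three batches with at least 5 reads.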
As for UAACAGGGGGCCCCAGCAGAAGCGUUCACGUCGCAGCCCCUGUCAGAUUCUGGUGAAUCUGCGAAUUCUGCUGUAUAUCAC [A13C U80A], the self-cleavage stood at 0.92.

As to UAACAGGGGGCCCGAGCAGAAGCGUUCACGUCGCAGCCCCUGUCAGAUUCUGGUGAAUCUGCGAAUUCUGCUGUAUAUCUC [A13C C14G], the self-cleavage turned out to be 0.56.

On to UAACAGGGGGCCCCAGCAGAAGCGUCCACGUCGCAGCCCCUGUCAGAUUCUGGUGAAUCUGCGAAUUCUGCUGUAUAUCUC [A13C U26C], for which the self-cleavage was 0.51.

For the variant UAACAGGGGGCCCCAGCAGAAGCGUACACGUCGCAGCCCCUGUCAGAUUCUGGUGAAUCUGCGAAUUCUGCUGUAUAUCUC [A13C U26A], the self-cleavage came to 0.61.

As for UAACAGGGGGCCGCCGCAGAAGCGUUCACGUCGCAGCCCCUGUCAGAUUCUGGUGAAUCUGCGAAUUCUGCUGUAUAUCUC [A13G A15C], the self-cleavage stood at 0.81.

In the case of UAACAGGGGGCCCCAGCAGAAGCGUUCACGUCGCAGCCCCUGCCAGAUUCUGGUGAAUCUGCGAAUUCUGCUGUAUAUCUC [A13C U43C], the self-cleavage was 0.62.

Consider UAACAGGGGGCCCCAGCAGAAGCGUUCACGUCGCAGCCCCUGUCAGAUUCUGGUGAAUCUGCGAAUUCUGCUGUGUAUCUC [A13C A75G], for which the self-cleavage turned out to be 1.12.

For UAACAGGGGGCCCCAGCAGAAGCGUUCACGUCGCAGCCCCUGUCAGAUUCUGGUGAAUCUGCGAAUUCUGCUGUUUAUCUC [A13C A75U], the self-cleavage is 0.99.

Consider UAACAGGGGGCCCCAGCAGAAGCGUUCACGUCGCAGCCCCUGUCAGAUUCUGGUGAAUCUGCGAAUUCUGCUGUAUGUCUC [A13C A77G], for which the self-cleavage turned out to be 1.12.

Take UAACAGGGGGCCCCAGCAGAAGCGUUCACGUCGCAGCACCUGUCAGAUUCUGGUGAAUCUGCGAAUUCUGCUGUAUAUCUC [A13C C38A]: the self-cleavage worked out at 0.33.

For the variant UAACAGGGGGCCCCAGCAGAAGCGUUCACGUCGCAGCUCCUGUCAGAUUCUGGUGAAUCUGCGAAUUCUGCUGUAUAUCUC [A13C C38U], the self-cleavage came out at 0.93.

UAACAGGGGGCCCCAGCAGAAGCGUUCACGUCGCAGCCCCUGUCAGACUCUGGUGAAUCUGCGAAUUCUGCUGUAUAUCUC [A13C U48C]: the self-cleavage is 0.68.

As for UAACAGGGGGCCCCAGCAGAAGCGUUCACGUCGCAGCCCCUGUCAGAUUCUGGUGAAUCUGCGAAUUCCGCUGUAUAUCUC [A13C U69C], the self-cleavage came out at 0.52.

Consider UAACAGGGGGCCCCAGCAGAAGCGUUCACGUCGCAGCCCCUGUCAGAUUCUGGUGAAUCUGCGAAUUCAGCUGUAUAUCUC [A13C U69A], for which the self-cleavage amounted to 0.31.

Consider UAACAGGGGGCCCCAGCAGAAGCGUUCACGUCGCAGCCCCUGUCAGAUUCUGGUGAACCUGCGAAUUCUGCUGUAUAUCUC [A13C U58C], for which the self-cleavage came out at 0.45.

For the variant UAACAGGGGGCCCCAGCAGAAGCGUUCACGUCGCAGCCCAUGUCAGAUUCUGGUGAAUCUGCGAAUUCUGCUGUAUAUCUC [A13C C40A], the self-cleavage came out at 0.26.

For the variant UAACAGGGGGCCCCAGCAGAAGCGUUCACUUCGCAGCCCCUGUCAGAUUCUGGUGAAUCUGCGAAUUCUGCUGUAUAUCUC [A13C G30U], the self-cleavage turned out to be 0.12.

Turning to UAACAGGGGGCCCCAGCAGAAGCGUUCACAUCGCAGCCCCUGUCAGAUUCUGGUGAAUCUGCGAAUUCUGCUGUAUAUCUC [A13C G30A], the self-cleavage amounted to 0.25.

Consider UAACAGGGGGCCCCAGCAGAAGCGUUCACGUCGCAGCCCCUGUCAGAUUCUGGUGAAUCUGCGUAUUCUGCUGUAUAUCUC [A13C A64U], for which the self-cleavage worked out at 0.4.

As to UAACAGGGGGCCCCAGCAGAAGCGUUCACGUCGCAGCCCCUGUCAGAUUCUGGUGAAUCUGCGGAUUCUGCUGUAUAUCUC [A13C A64G], the self-cleavage is 0.93.

In the case of UAACAGGGGGCCCCAGCAGAAGCGUUCACGUCGCAGCCCCCGUCAGAUUCUGGUGAAUCUGCGAAUUCUGCUGUAUAUCUC [A13C U41C], the self-cleavage is 1.08.

UAACAGGGGGCCCCAGCAGAAGCGUUCACGUCGCAGCCCCUGUCAGAUUCUGGUGAAUCUGCGAAUUCUGCUCUAUAUCUC [A13C G73C]: the self-cleavage is 0.48.

With UAACAGGGGGCCCCAGCAGAAGCGUUCACGCCGCAGCCCCUGUCAGAUUCUGGUGAAUCUGCGAAUUCUGCUGUAUAUCUC [A13C U31C], the self-cleavage stood at 0.66.

In the case of UAACAGGGGGCCCCAGCAGAAGCGUUCACGACGCAGCCCCUGUCAGAUUCUGGUGAAUCUGCGAAUUCUGCUGUAUAUCUC [A13C U31A], the self-cleavage was determined as 0.38.

Take UAACAGGGGGCCCCAGCAGAAGCGUUCACGUCGCAGCCCCUGUCAGAUUCUGGUGAAUCUGCGAAUUCUGCUGUAUAUUUC [A13C C79U]: the self-cleavage was 1.11.

Regarding UAACAGGGGGCCCCAGCAGAAGCGUUCACGUCGCAGCCCCUGUCAGAUUCUGGUGAAUCUGCGAACUCUGCUGUAUAUCUC [A13C U66C], the self-cleavage is 0.33.

In the case of UAACAGGGGGCCCCAGCAGAAGCGUUCACGUCGCAGCCCCUGUCAGAUCCUGGUGAAUCUGCGAAUUCUGCUGUAUAUCUC [A13C U49C], the self-cleavage turned out to be 0.42.

Turning to UAACAGGGGGCCCCAGCAGAAGCGUUCACGUCGCAGCCCCUGUCAGAUUCUGGCGAAUCUGCGAAUUCUGCUGUAUAUCUC [A13C U54C], the self-cleavage was 1.09.

As to UAACAGGGGGCCCCAGCAGAAGCGUUCACGUCGCAGCCCCUGUCAGAUUCUGGGGAAUCUGCGAAUUCUGCUGUAUAUCUC [A13C U54G], the self-cleavage worked out at 0.71.

Consider UAACAGGGGGCCCCAGUAGAAGCGUUCACGUCGCAGCCCCUGUCAGAUUCUGGUGAAUCUGCGAAUUCUGCUGUAUAUCUC [A13C C17U], for which the self-cleavage was 0.53.

Regarding UAACAGGGGGCCCCAGCAGAAGCGUUCACGUCGCAGCCCCUGUCACAUUCUGGUGAAUCUGCGAAUUCUGCUGUAUAUCUC [A13C G46C], the self-cleavage was determined as 0.18.

For UAACAGGGGGCCCCAGCAGAAGCGUUCACGUCGCAGCCCCUGUCAGAUUAUGGUGAAUCUGCGAAUUCUGCUGUAUAUCUC [A13C C50A], the self-cleavage was 0.87.

UAACAGGGGGCCCCAGCAGAAGCGUUCACGUCGCAGCCCCUGUCAGAUUCUGGUGAGUCUGCGAAUUCUGCUGUAUAUCUC [A13C A57G]: the self-cleavage stood at 1.04.

For UAACAGGGGGCCCCAGCAGAAGCGUUCACGUCGCAGCCCCUGUCAGAUUCUGGUGAUUCUGCGAAUUCUGCUGUAUAUCUC [A13C A57U], the self-cleavage came to 0.28.
